Values belong to the substance of their own block, whether it stands above or below them.
Key:
Assay in all cases: SPR
[1] = target: trout saccular hair cell snapin, pRSET-A fusion protein (trout)
[2] = target: trout saccular hair cell dopamine D1A4 carboxy terminus, pRSET-A fusion protein (trout)
[3] = target: trout saccular hair cell otoferlin C2F domain, pRSET-A fusion protein (trout)
[4] = target: N-ethylmaleimide-sensitive factor (NSF), pRSET-A fusion protein (mouse) (UniProt P46460)
[5] = target: rat organ of Corti AP2mu1, pRSET-A fusion protein (SPR and Figure 7A,B) (rat) (UniProt P84092)

N-ethylmaleimide-sensitive factor (NSF), pRSET-A fusion protein (mouse), sequence (P46460 whole entry, the tested form may be a part): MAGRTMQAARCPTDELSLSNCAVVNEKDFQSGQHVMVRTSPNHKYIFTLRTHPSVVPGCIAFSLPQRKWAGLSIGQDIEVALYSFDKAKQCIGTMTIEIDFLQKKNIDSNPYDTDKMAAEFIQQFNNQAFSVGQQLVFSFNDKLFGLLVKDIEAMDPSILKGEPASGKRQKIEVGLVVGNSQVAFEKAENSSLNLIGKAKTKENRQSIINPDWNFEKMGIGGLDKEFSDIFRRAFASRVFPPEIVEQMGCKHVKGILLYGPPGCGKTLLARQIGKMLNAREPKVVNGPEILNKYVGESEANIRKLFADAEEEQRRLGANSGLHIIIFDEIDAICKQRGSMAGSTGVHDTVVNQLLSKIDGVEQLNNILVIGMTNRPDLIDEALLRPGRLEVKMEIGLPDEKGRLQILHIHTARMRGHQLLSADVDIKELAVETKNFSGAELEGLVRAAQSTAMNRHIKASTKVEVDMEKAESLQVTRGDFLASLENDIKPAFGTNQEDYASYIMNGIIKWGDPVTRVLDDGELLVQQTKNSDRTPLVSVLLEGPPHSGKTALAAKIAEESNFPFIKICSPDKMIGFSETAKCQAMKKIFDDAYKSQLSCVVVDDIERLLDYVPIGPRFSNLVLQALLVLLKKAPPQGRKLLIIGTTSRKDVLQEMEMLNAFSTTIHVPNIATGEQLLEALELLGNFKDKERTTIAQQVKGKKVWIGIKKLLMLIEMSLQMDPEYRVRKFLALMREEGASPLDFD

Kd [1]: 0.013 µM
koff [1]: 0.00407 s⁻¹
Substance: trout saccular hair cell otoferlin C2F domain, pRSET-A fusion protein (domain or fragment)

Kd [1]: 0.0146 µM
koff [1]: 0.00174 s⁻¹
Substance: trout saccular hair cell dopamine D1A4 carboxy terminus, pRSET-A fusion protein (domain or fragment)

Kd [2]: 0.0269 µM
koff [2]: 0.00784 s⁻¹
Kd [3]: 0.0234 µM
koff [3]: 0.00348 s⁻¹
Substance: trout saccular hair cell snapin, pRSET-A fusion protein (domain or fragment)

Kd [4]: 0.00229 µM
koff [4]: 0.00073 s⁻¹
Kd [5]: 0.129 µM
koff [5]: 0.00273 s⁻¹
kon [5]: 21200 M⁻¹ s⁻¹
Substance: rat organ of Corti otoferlin C2F domain, pRSET-A fusion protein used for SPR (domain or fragment)

Source: publication PMC6310132
